Results from patent US20100167270.

Legend:
[1] = tested on: hMPV F protein of rhMPV/NL/1/00/101P (RQPR cleavage motif)
[2] = tested on: hMPV F protein of rhMPV/NL/1/00/101S (RQSR cleavage motif)
[3] = tested on: hMPV F protein of rhMPV/NL/1/99/101S (subtype B1)

TPCK trypsin (Sigma)
cleavage of vectored hMPV F (b/h PIV3), Western blot [1]: In the presence of trypsin, the vectored F proteins of both hMPV/NL/1/00/101P and hMPV/NL/1/00/101S were partially cleaved to the same extent as the F protein expressed from the wt hMPV/NL/1/00
cleavage of hMPV F (F0 to F1), Western blot [2]: hMPV F containing 101S was cleaved only when the protein was exposed to trypsin
cleavage of vectored hMPV F (b/h PIV3), Western blot [2]: In the presence of trypsin, the vectored F proteins of both hMPV/NL/1/00/101P and hMPV/NL/1/00/101S were partially cleaved to the same extent as the F protein expressed from the wt hMPV/NL/1/00
cleavage of hMPV F (F0 to F1), Western blot [3]: hMPV F/101S showed no cleavage in the absence of trypsin, but in the presence of trypsin, the F1 fragment was readily detected
